Measured values from the Immune Epitope Database (IEDB).

biological target: HLA-A*02:01; test: IEDB peptide-MHC binding, purified MHC/competitive/fluorescence; ≥ and ≤ were set here for values at or beyond the usual limits of such assays; conditions: source organism: Homo sapiens

Point of comparison: YLVCGERGFFY, IC50 8590 nM. Against it:
- ALYLVCGER — higher, ≥ 90200 nM
- ALYLVCGERG — higher, ≥ 100000 nM
- ALYLVCGERGF — 3.8-fold lower, 2260 nM
- GSHLVEALYLV — 2.3-fold lower, 3730 nM
- HLCGSHLVEAL — 20-fold lower, 440 nM
- HLVEALYLVC — 4.9-fold lower, 1750 nM
- HLVEALYLVCG — 45-fold lower, 190 nM
- SHLVEALYL — 6.9-fold higher, 59400 nM
- YLVCGERGFF — 3.7-fold lower, 2300 nM
